Measurements from publication PMC7253899 (Saudi Journal of Biological Sciences, 2020).

Target: the molecule itself
Experiment: SEC-MALS

B1: TRAIP Leucine zipper domain (198-280 a.a) (domain or fragment, human, UniProt Q9BWF2 198-280, looked up)
chain: AVYCVSLKKEYENLKEARKASGEVADKLRKDLFSSRSKLQTVYSELDQAKLELKSAQKDLQSADKEIMSLKKKLTMLQETLNL
stoichiometry N: 3
